The text below walks through data of patent publication US20200002415A1 (published 2020).

Test [1] has as its target T1, Recombinant FcγRIIA-131H/H allotype (generated at MedImmune) (human, UniProt P12318 34-217, limits assumed).
T1 construct: ELISA coating protein; also called human FcγRIIA; CD32A
T1 sequence: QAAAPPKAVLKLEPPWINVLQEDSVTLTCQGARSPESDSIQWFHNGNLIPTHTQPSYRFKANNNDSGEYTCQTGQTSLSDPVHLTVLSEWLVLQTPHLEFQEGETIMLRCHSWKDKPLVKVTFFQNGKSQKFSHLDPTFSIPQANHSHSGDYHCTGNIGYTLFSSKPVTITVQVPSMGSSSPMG
Nature of the test: ELISA on coated recombinant FcγRIIA-131H/H. How it is done:
Plates were washed five times with 200 μl of wash buffer (PBS containing 0.1% Tween 20), blocked with blocking buffer containing 5% milk in PBS for 1 hour at room temperature, and washed five additional times with wash buffer. Three-fold serial dilutions of the test antibody or control antibody (R347-Tm) were added to wells in duplicate. Plates were incubated for 2 hours at room temperature, and washed five times with wash buffer. Binding of the antibodies to the FcγRs was detected by adding 50 μl of goat anti-human Fc-HRP (Jackson ImmunoResearch Laboratories, PA) to the wells and incubating for 1 hour at room temperature, washing 10 times, and adding 50 μl TMB substrate (Pierce Biotechnology, MA). The color reaction was stopped with 50 μl 0.2M […] and the absorbance was measured using a spectrophotometer (Molecular Devices, CA) at […].
(In an ELISA, binding on a coated surface is turned into a signal by an enzyme label.)

Test [2] has as its target T2, human FcγRIIA 131R on blood cells of 131R/R donors (human, UniProt P12318 34-317).
T2 chain: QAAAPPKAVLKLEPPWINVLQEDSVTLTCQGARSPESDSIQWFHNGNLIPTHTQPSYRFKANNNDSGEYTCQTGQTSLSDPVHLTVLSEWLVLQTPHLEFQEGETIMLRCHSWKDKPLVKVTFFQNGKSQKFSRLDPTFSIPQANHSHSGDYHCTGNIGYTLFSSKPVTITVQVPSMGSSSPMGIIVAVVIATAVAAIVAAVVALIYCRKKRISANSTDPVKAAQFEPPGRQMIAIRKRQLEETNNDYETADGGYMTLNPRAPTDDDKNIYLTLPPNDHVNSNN
The test can be described thus: cell-based or functional assay.

B1: 32LO0350 (antibody, human IgG1, V domains shown)
VH: QVQLVQSGAEVKKPGASVKVSCKASGYTFTNYGMNWVRQAPGQRLEWMGWLNTYTGESWYPDDFKGRVTITRDTSASTAYMELSSLRSEDTAVYYCARGDYGYDDPLDYWGQGTLVTVSS
VL: DIVMTQSPLSLPVTPGEPASISCRSSKSLLHTNRNTYLHWFLQKPGQSPQLLIYRMSVLASGVPDRFSGSGSGTDFTLKISRVEAEDVGVYYCMQHLEYPLTFGQGTKLEIK
notes: expressed as human IgG1-TM with human kappa light chain; also called optimized IV.3 clone 32LO0350
For the molecule B1, the binding result in test [1] was “binds”.

B2: 32LO0354 (antibody, human IgG1, V domains shown)
VH: QVQLVQSGAEVKKPGASVKVSCKASGYTFTNYGMNWVRQAPGQRLEWMGWLNTYTGESYYPDDFKGRVTITRDTSASTAYMELSSLRSEDTAVYYCARGDYGYDDPLDYWGQGTLVTVSS
VL: DIVMTQSPLSLPVTPGEPASISCRSSKSLLHTNRNTYLHWFLQKPGQSPQLLIYRMSVLASGVPDRFSGSGSGTDFTLKISRVEAEDVGVYYCMQHLEYPLTFGQGTKLEIK
notes: expressed as human IgG1-TM with human kappa light chain; also called optimized IV.3 clone 32LO0354
On to B2, for which, in test [1], the binding result is “binds”.

B3: 32LO0355 (antibody, human IgG1, V domains shown)
VH: QVQLVQSGAEVKKPGASVKVSCKASGYTFTNYGMNWVRQAPGQRLEWMGWLNTYTGESWYPDDFKGRVTITRDTSASTAYMELSSLRSEDTAVYYCARGDYGYDDPLDYWGQGTLVTVSS
VL: DIVMTQSPLSLPVTPGEPASISCRSSKSLLHTNKNTYLHWFLQKPGQSPQLLIYRMSVLASGVPDRFSGSGSGTDFTLKISRVEAEDVGVYYCMQHLEYPLTFGQGTKLEIK
notes: expressed as human IgG1-TM with human kappa light chain; also called optimized IV.3 clone 32LO0355
Consider B3, for which the binding result in test [1] is given as “binds”.

B4: chimeric IV.3 (human IgG1-TM) (antibody, V domains shown)
VH: QIQLVQSGPELKKPGETVKISCKASGYTFTNYGMNWVKQAPGKGLKWMGWLNTYTGESIYPDDFKGRFAFSSETSASTAYLQINNLKNEDMATYFCARGDYGYDDPLDYWGQGTSVTVSS
VL: DIVMTQAAPSVPVTPGESVSISCRSSKSLLHTNGNTYLHWFLQRPGQSPQLLIYRMSVLASGVPDRFSGSGSGTAFTLSISRVEAEDVGVFYCMQHLEYPLTFGAGTKLELK
As to B4, the “EC50 of FcγRIIA internalization from the monocyte surface, whole blood FACS assay” value in test [2] is 0.2 nM.
